# Measured values as given in patent US20110117206A1, “PHOSPHOPEPTIDES AND USE OF THE SAME” (PLANT BIOSCIENCE LIMITED, priority 2008, published 2011).
# Ends that are not written are not given here.
# Experiments:
# [1] = Fetuin A / casein phosphopeptide mixed nanoclusters, dynamic light scattering; assay type: physicochemical; conditions: 66.4 mg ml^−1, Mg-free Buffer A, urea/urease method
# Protocol: Fetuin A was purchased from Sigma Aldrich as product no. F3004. […] The inventors determined the precipitation problem was much reduced at lower fetuin A concentrations so an approach was adopted in which mixed nanoclusters were prepared with casein phosphopeptides and a variable concentration of the fetuin A to recover the size of the fetuin nanoclusters by an extrapolation procedure from lower concentrations. The casein phosphopeptide mixture was supplied by Arla Ltd, Denmark as product Lacprodan 2090 (Na salt). […] The intensity weighted normalised distribution curves calculated by Laplace transformation of the correlation functions of the 6 samples, offset vertically for clarity (FIG. 18a) indicate a nanocluster peak of about 6 nm in accordance with previous work, but as the fetuin A concentration increased, a second peak became increasingly important at larger size. […] Although difficult to estimate exactly, on the basis of scattering by homogeneous spherical particles, the weight fraction of aggregated material in these experiments was calculated to be less than 1% in all cases. […]
# [2] = Ca2+ binding isotherm (Ca ion selective electrode) fitted with semi-empirical binding model; conditions: from isotherm fit
# Source text: To model the chemical species in the OPN 1-149 nanocluster solution requires the calculation of Ca ion binding to the free peptide at any pH in the range 5.0-8.0. A semi-empirical model was used to describe the binding isotherms obtained previously for the β-casein 1-25 phosphopeptide in this pH range and the same model was adapted to fit the binding isotherm of OPN 1-149 measured at pH 7.0. The rescaled model was then used to predict binding at any other value of the pH. Binding of Ca ions to the β-casein 1-25 peptide is predominantly to 4 phosphorylated residues and, to a lesser extent, to 7 Glu residues and the C-terminus.
# Fitting of the experimental isotherms was done to an equation of the form
# where the summation is over all binding sites with Ca ion association constants Ka,i. The function Ni(pH) describes the number of sites of type i as a function of pH and φi is the degree of phosphorylation. It was assumed, that all the phosphorylated sites had the average degree of phosphorylation φ. The number of dianionic phosphoseryl sites at a given pH is given by
# The binding behaviour of β-casein has shown that one Ca ion is bound much more strongly than the rest, so the model for binding to the phosphate dianionic groups allowed for two pKs and two Ca ion association constants. The phosphorylated sites have a reduced affinity for Ca ions when they become protonated and were treated as having the same low affinity as the carboxyl groups. […]
# The Ca^2+ binding isotherm of peptides recovered from fraction F3a was determined by measuring the concentration of free Ca ions with a Ca ion selective electrode after successive small additions of a stock solution of 100 mM Ca(NO3)2 to a solution containing 25 mg ml^−1 of F3a, buffered to pH 7.0 with 20 mM P, and 50 mM KNO3. […] The calculated OPN 1-149 isotherm was obtained by a separate fitting of the single isotherm employing a model with two pKs and association constants but keeping as many as possible of the constants from the casein model.
# [3] = SAXS of free OPN and OPN 1-149 (Guinier, worm-like chain model); assay type: physicochemical
# Protocol: In a SAXS experiment, wherein measurements were made on station 2.1 at the CCLRC Daresbury Laboratory, the normalised scattered intensity I(q) was measured. For a dispersion of isotropic, monodisperse particles, I(q) is related to the inter-particle structure factor, S(q) and the particle scattering factor P(q) by
# where N is the number of particles of mean excess scattering length density over the solvent Δ ρp, volume Vp and mass M. The scattering wave vector is q=4π sin θ/λo, where θ is half the scattering angle and λo is the wavelength of the X-rays. In a dilute solution where S(q)=1 and a fraction α′ of the peptide chains have formed a polydisperse distribution of nanoclusters, equation (22) becomes
# The molar volumes of the unphosphorylated residues were taken from Jacrot and Zaccai (Jacrot, B. & Zaccai, G. (1981). Determination of Molecular-Weight by Neutron-Scattering. Biopolymers 20, 2413-2426). The molar volume of ortho-L-phosphoserine was calculated from the unit cell volume of the amino acid, as determined by Sundaralingam (Sundaralingam, M. & Putkey, E. F. (1970). Molecular structures of amino acids and peptides. II. A redetermination of the crystal structure of L-O-serine phosphate. A very short phosphate-carboxyl hydrogen bond. Acta Crystallographica B26, 790-800) and 11 Å^3 subtracted to give the residue volume of 168.7 Å^3. The difference in residue volumes of serine and phosphoserine was then used to calculate a residue volume for phosphothreonine of 191.7 Å^3. The X-ray forward scattering amplitudes of the residues were calculated from the elemental compositions using atomic scattering factors. For OPN 16P 1-149 and OPN 28P 1-262, the scattering length densities in units of […] were calculated to be 12.56 and 12.48, respectively. For the nanoclusters prepared with OPN 16P 1-149 it was assumed that the phosphate moieties of the 10 phosphorylated residues found in the three PCs, were assigned to the core, giving ρshell=12.40×10^10 cm^−2. For the core, a hydrated CaP with the composition given by equation (2) gave ρcore=19.1×10^10 cm^−2. Radii of gyration of the whole protein and N-terminal polypeptide were independent of concentration in the range 5-15 mg ml^−1. For OPN the average of three determinations by the Guinier method was 5.50±0.17 nm and the corresponding value for OPN 1-149 was 2.17±0.24 nm. For OPN with 262 residues, equation (28) predicts a radius of gyration of 5.38 nm and for the N-terminal plasmin peptide of 149 residues, the predicted value is 3.84 nm.
# Random-coil behavior and the dimensions of chemically unfolded proteins. Proceedings of the National Academy of Sciences of the United States of America 101, 12491-12496). […]
substance,measurement,setting,value
"Fetuin A: purchased from Sigma Aldrich, product no. F3004, purity about 80-90%",nanocluster preparation with fetuin A alone,[1],a fraction of the product precipitated
"β-casein 1-25: 25 residue N-terminal bovine β-casein tryptic phosphopeptide (RELEELNVPGEIVESLSSSEESITR; also: phosphopeptide (4P), sites not given here; UniProt P02666 16-40, looked up, fragment)",effective pK of the isolated Pse residue,[2],6.0
same,pK of the cluster of three Pse residues,[2],7.2
"OPN: full length native bovine milk osteopontin, gel filtration fraction F2",Kuhn length from the worm-like chain model,[3]; fit of SAXS,1.74±0.14 nm
same,radius of gyration by the Guinier method,"[3]; free peptide, 5-15 mg ml^−1, average of three determinations",5.50±0.17 nm
same,Kuhn segment length b from equation (24),[3]; from radius of gyration,1.9 nm
